T1: Interleukin-12 (IL-12) (human, UniProt P29459 23-219; P29460 23-328)
T1 sequence 1: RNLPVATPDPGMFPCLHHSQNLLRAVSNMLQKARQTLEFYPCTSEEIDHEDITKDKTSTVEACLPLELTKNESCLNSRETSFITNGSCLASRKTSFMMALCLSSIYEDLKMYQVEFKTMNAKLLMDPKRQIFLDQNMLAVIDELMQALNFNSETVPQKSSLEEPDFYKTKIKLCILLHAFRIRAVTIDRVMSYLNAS
T1 sequence 2: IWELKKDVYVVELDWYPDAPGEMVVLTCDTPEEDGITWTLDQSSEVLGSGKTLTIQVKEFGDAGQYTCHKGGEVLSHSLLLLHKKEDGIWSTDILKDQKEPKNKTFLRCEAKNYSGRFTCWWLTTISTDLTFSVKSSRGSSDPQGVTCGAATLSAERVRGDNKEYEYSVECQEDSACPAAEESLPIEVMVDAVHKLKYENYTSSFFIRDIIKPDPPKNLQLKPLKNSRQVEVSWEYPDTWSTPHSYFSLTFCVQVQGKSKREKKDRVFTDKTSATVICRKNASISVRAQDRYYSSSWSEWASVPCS


Legend:
Interleukin-12 (IL-12) [1] = target: T1, Interleukin-12 (IL-12); experiment: cell-based or functional assay
Interleukin-12 (IL-12) [2] = target: T1, Interleukin-12 (IL-12); experiment: affinity for IL-12; method not stated
[3] = target: collagen present in fibrotic rat livers (rat); experiment: 24 h incubation with fibrotic rat liver slices, recovered protein by MSD U-PLEX
Experimental: (§1) FIGS. 26A-26B: Precision cut liver slices were prepared from fibrotic rat livers. IL-12 Fc fusion proteins (BI-057 or BI-065; in amounts indicated in figure legends) were added to the slices and incubated for 24 hours (FIG. 26A) or 2 hours followed by 22 h recovery period (FIG. 26B). After 2 h incubation, fusion proteins were thoroughly washed and incubated for another 22 h in medium before harvest. After 24 h, slices were collected, lysed and homogenized. The amount of IL-12 Fc fusion proteins recovered from the slices was determined with the MSD U-PLEX Biomarker Assay using IL-12 Fc fusion proteins as standards.
(§2) Briefly, tissue cores are cut from the fibrotic rat liver using a 5 mm cylindrical motorized tissue coring press (Alabama R&D, MD5000), and 300 μm thick tissue slices are cut using a tissue slicer (Alabama R&D, MD6000). All tissue slices are cultured with a floating culture system (60 rpm) in 12 well plates (Nunc) in a humidified incubator, 95% O₂/5% CO₂, 37° C. in 1.3 mL supplemented William's Medium E (Life Technologies).

rat collagen I = target: T2, rat collagen I (rat, UniProt P02454 152-1207; P02466 86-1125); experiment: ELISA on plates coated with rat collagen I (Corning), detection with anti-human Fc
T2 construct: Bought; also called Rat collagen (Corning)
T2 sequence (P02454 152-1207, chain 1 of 2): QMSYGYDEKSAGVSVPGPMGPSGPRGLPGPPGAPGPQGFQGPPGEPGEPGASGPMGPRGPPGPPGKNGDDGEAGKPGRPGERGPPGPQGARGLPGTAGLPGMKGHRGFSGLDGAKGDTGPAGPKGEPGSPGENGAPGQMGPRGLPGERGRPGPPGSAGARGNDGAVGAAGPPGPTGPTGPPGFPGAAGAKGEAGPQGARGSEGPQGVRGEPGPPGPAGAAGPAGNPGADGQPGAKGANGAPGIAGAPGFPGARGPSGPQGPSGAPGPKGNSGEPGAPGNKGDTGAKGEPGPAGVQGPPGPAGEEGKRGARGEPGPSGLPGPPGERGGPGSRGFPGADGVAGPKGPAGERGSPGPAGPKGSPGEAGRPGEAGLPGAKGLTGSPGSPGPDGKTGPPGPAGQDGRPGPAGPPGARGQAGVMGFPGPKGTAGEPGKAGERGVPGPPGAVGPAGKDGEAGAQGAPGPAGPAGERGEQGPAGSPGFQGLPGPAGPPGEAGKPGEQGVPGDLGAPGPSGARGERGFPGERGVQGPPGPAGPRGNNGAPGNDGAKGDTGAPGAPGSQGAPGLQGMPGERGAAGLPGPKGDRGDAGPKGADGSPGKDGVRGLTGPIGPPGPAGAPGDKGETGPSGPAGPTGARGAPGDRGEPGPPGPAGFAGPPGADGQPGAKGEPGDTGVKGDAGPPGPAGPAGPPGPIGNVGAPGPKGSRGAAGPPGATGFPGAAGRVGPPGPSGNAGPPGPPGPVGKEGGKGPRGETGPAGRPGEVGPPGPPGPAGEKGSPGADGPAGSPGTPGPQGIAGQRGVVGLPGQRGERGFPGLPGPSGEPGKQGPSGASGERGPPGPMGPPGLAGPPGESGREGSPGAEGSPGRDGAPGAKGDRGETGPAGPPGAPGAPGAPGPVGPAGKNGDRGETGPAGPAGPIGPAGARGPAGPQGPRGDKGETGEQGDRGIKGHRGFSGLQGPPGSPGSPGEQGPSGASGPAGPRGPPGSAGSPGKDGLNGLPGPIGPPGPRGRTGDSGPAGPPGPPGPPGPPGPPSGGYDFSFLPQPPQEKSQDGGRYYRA
T2 sequence (P02466 86-1125, chain 2 of 2): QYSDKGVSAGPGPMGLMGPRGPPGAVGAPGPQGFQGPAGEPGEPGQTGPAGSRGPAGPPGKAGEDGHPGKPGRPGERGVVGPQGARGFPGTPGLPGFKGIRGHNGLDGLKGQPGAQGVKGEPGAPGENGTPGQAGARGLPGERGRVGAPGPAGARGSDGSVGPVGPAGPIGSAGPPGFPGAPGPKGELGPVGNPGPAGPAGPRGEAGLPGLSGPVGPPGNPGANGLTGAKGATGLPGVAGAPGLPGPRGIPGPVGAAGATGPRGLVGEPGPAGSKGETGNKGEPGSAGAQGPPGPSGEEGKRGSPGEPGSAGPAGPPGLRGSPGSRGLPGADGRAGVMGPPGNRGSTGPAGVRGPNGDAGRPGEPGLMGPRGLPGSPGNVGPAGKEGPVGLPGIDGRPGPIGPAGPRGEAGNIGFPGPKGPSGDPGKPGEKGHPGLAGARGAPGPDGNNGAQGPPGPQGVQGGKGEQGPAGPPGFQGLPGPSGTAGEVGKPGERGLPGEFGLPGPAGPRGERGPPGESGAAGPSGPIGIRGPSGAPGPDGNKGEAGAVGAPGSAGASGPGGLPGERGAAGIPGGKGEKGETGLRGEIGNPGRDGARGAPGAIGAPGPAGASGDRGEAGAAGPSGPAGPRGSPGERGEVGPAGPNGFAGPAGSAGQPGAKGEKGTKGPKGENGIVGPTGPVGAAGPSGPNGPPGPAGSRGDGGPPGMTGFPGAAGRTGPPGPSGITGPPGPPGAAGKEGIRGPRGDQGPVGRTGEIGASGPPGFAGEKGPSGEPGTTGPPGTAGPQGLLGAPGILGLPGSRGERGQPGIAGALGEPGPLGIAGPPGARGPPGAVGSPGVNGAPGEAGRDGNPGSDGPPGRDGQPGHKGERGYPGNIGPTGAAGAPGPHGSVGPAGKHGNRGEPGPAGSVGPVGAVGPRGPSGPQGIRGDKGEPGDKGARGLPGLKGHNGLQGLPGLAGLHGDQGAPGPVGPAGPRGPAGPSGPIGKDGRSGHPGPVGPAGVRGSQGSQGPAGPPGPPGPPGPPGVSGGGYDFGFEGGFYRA
Experimental: (§3) Collagen binding properties were further evaluated in ELISA assay. Chimeric IL-12 Fc fusion protein BI-065 or chimeric IL-12 Fc fusion protein containing collagen I TME linker BI-057 were added to collagen I-coated plates. To this end, plates were coated either with rat collagen I (FIG. 25A) or with human skin collagen I (FIG. 25B).
(§4) Briefly, high binding microplates (greiner) are coated over night at 4° C. with rat collagen (Corning) or human collagen (Millipore/R&D) diluted in coating buffer (Invitrogen) with a concentration of 0.005 mg/mL. IL-12 Fc fusion proteins are diluted in PBS+1% BSA and added to collagen precoated plates for 2 hours. The plates are blocked with 1% BSA before addition of proteins to minimize unspecific binding. Next, plates are washed 3× followed by incubation with biotinylated anti-human Fc antibody (Invitrogen). After additional washing step, Streptavidin-HRP are added to the plates. Substrate are added to plates after a washing step and plates are read in ELISA reader (Tecan).

human collagen type 1 = target: T3, human collagen type 1 (human, UniProt P02452 162-1218; P08123 80-1119, limits assumed); experiment: ELISA on plates coated with human collagen I (Millipore/R&D), detection with anti-human Fc
T3 construct: Bought or cell-made collagen; also called human collagen I; human collagen (Millipore/R&D)
T3 sequence (P02452 162-1218 limits assumed, chain 1 of 2): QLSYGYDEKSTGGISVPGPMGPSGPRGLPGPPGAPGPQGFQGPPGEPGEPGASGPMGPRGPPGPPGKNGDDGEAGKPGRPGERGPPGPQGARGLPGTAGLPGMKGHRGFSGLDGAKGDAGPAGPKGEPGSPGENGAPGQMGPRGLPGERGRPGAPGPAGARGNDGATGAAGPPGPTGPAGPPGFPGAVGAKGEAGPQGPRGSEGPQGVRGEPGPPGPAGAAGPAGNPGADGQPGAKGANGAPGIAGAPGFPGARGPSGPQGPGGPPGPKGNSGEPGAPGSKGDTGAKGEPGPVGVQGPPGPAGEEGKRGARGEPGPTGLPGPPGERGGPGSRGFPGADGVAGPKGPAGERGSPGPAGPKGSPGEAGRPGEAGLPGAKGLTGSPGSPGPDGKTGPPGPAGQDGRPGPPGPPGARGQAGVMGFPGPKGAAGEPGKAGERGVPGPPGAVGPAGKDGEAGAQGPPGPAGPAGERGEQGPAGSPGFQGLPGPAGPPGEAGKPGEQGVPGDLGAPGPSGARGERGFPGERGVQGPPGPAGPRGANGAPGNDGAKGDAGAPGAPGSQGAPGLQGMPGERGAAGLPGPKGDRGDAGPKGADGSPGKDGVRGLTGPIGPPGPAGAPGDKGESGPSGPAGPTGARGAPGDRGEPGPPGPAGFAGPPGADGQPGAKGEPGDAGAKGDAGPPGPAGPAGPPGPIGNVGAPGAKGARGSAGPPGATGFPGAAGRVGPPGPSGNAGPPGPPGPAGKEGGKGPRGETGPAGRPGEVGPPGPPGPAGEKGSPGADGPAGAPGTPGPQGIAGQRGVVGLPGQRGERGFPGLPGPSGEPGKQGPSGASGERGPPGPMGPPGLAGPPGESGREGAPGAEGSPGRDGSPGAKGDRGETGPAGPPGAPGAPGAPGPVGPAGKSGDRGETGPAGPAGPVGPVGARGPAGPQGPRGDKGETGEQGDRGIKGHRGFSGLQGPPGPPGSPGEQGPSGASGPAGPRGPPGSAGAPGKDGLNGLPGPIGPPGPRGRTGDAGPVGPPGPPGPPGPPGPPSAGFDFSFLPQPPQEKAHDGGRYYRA
T3 sequence (P08123 80-1119 limits assumed, chain 2 of 2): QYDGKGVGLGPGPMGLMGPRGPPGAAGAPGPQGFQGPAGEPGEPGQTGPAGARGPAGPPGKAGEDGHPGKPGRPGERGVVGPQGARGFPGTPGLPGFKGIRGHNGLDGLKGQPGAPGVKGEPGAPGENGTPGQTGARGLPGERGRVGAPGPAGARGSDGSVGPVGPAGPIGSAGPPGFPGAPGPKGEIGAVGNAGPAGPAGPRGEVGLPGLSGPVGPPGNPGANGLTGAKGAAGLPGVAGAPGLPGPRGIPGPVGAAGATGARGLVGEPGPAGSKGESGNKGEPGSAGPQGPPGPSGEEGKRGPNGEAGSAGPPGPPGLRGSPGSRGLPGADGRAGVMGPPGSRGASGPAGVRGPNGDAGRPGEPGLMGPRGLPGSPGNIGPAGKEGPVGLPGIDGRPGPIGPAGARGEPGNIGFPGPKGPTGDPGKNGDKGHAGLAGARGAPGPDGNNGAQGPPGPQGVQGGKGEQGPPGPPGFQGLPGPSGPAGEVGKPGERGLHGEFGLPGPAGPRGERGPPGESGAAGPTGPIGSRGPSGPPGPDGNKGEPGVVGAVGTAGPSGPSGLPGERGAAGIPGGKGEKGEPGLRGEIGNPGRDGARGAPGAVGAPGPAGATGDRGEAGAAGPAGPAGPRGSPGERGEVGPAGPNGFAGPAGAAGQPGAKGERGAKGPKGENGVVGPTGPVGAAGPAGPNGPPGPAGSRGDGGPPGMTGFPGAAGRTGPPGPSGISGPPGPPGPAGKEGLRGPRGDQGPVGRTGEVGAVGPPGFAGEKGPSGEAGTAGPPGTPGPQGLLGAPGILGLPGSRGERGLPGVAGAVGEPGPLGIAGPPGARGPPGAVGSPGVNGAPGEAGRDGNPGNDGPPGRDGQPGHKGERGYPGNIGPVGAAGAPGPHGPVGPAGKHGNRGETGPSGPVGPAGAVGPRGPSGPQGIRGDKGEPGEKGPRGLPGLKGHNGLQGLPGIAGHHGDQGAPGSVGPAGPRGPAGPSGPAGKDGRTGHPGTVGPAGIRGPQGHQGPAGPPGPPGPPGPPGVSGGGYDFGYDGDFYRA
Experimental: as §3, §4

[4] = target: collagen present in fibrotic rat livers (rat); experiment: 2 h incubation, wash and 22 h culture of fibrotic rat liver slices, recovered protein by MSD U-PLEX
Experimental: as §1, §2

Binder	IC50 (Interleukin-12 (IL-12) [1])	Kd (Interleukin-12 (IL-12) [2])	fold decrease in fold recovery from liver slices against BI-065 [3]	EC50 (rat collagen I)	EC50 (human collagen type 1)	fold recovery from liver slices against BI-065 [4]
BI-039 (VHH) VHH: QVQLVESGGGLVQAGGSLRLSCAASGRTFETIAMGWFRQVPGKEREFVAVIRGSGVATYYPDSVKGRFTISKDSAKNTVYLQMNNLKPEDTAVYYCAATTNRFKNTDYTTYDYWGQGTQVTVSS	0.61 nM	3.5 nM				
BI-119 (VHH) VHH: EVQLVESGGGLVQPGGSLRLSCAASGRTFETIAMGWFRQAPGKEREFVAVIRGSGVATYYPESVKGRFTISKDSSKNTVYLQMNSLRAEDTAVYYCAATTNRFKNRDYTTYDYWGQGTQVTVSS	2.4 nM	8.5 nM				
BI-048 (VHH, Humanised variant of BI-039, the selected masking domain; also called Mix 13) VHH: EVQLVESGGGLVQPGGSLRLSCAASGRTFETIAMGWFRQAPGKGLEFVAVIRGSGVATYYAESVKGRFTISKDSSKNTVYLQMNSLRAEDTAVYYCAATTNRFKNTDYTTYDYWGQGTQVTVSS	0.44 nM	3.7 nM				
BI-057 (Fc fusion, Knob-into-hole heterodimer; human p40, mouse p35; also called chimeric IL-12 Fc fusion protein containing collagen I TME linker) chain 1: EPKSSDKTHTCPPCPAPEAAGGPSVFLFPPKPKDTLMISRTPEVTCVVVDVSHEDPEVKFNWYVDGVEVHNAKTKPREEQYNSTYRVVSVLTVLHQDWLNGKEYKCKVSNKALPAPIEKTISKAKGQPREPQVYTLPPSREEMTKNQVSLWCLVKGFYPSDIAVEWESNGQPENNYKTTPPVLDSDGSFFLYSKLTVDKSRWQQGNVFSCSVMHEALHNHYTQKSLSLSPGGGGGSGGGGGPLGVRGGGGGSIWELKKDVYVVELDWYPDAPGEMVVLTCDTPEEDGITWTLDQSSEVLGSGKTLTIQVKEFGDAGQYTCHKGGEVLSHSLLLLHKKEDGIWSTDILKDQKEPKNKTFLRCEAKNYSGRFTCWWLTTISTDLTFSVKSSRGSSDPQGVTCGAATLSAERVRGDNKEYEYSVECQEDSACPAAEESLPIEVMVDAVHKLKYENYTSSFFIRDIIKPDPPKNLQLKPLKNSRQVEVSWEYPDTWSTPHSYFSLTFCVQVQGKSKREKKDRVFTDKTSATVICRKNASISVRAQDRYYSSSWSEWASVPCSGGGGSGGGGSGGGGSRVIPVSGPARCLSQSRNLLKTTDDMVKTAREKLKHYSCTAEDIDHEDITRDQTSTLKTCLPLELHKNESCLATRETSSTTRGSCLPPQKTSLMMTLCLGSIYEDLKMYQTEFQAINAALQNHNHQQIILDKGMLVAIDELMQSLNHNGETLRQKPPVGEADPYRVKMKLCILLHAFSTRVVTINRVMGYLSSAGSGGLRELHLDNN chain 2: EPKSSDKTHTCPPCPAPEAAGGPSVFLFPPKPKDTLMISRTPEVTCVVVDVSHEDPEVKFNWYVDGVEVHNAKTKPREEQYNSTYRVVSVLTVLHQDWLNGKEYKCKVSNKALPAPIEKTISKAKGQPREPQVYTLPPSREEMTKNQVSLSCAVKGFYPSDIAVEWESNGQPENNYKTTPPVLDSDGSFFLVSKLTVDKSRWQQGNVFSCSVMHEALHNRFTQKSLSLSPGGGGGSGGGGSGGGGSGGGGSGGGGSEVQLVESGGGLVQPGGSLRLSCAASGRTFETIAMGWFRQAPGKGLEFVAVIRGSGVATYYAESVKGRFTISKDSSKNTVYLQMNSLRAEDTAVYYCAATTNRFKNTDYTTYDYWGQGTQVTVSSA			> 10 fold	26 nM	75 nM	10 fold
BI-049 (VHH, Variant of BI-039, mask of BI-054; also called Mix 15) VHH: EVQLVESGGGLVQPGGSLRLSCAASGRTFETIAMGWFRQAPGKGLEFVAVIRGSGVATYYAESVKGRFTISKDSSKNTVYLQMNSLRAEDTAVYYCAATTNRFKNREYTTYDYWGQGTQVTVSS	5.7 nM	12 nM				

The remaining lines, values ahead:

IC50 (Interleukin-12 (IL-12) [1])	Kd (Interleukin-12 (IL-12) [2])	fold decrease in fold recovery from liver slices against BI-065 [3]	EC50 (rat collagen I)	EC50 (human collagen type 1)	fold recovery from liver slices against BI-065 [4]	Binder
2.5 nM	4.1 nM					BI-120 (VHH) VHH: EVQLVESGGGLVQPGGSLRLSCAASGRTFETIAMGWFRQAPGKEREFVAVIRGSGVATYYPESVKGRFTISKDSSKNTVYLQMNSLRAEDTAVYYCAATTNRFKNTEYTTYDYWGQGTQVTVSS
10 nM	30 nM					BI-123 (VHH) VHH: EVQLVESGGGLVQPGGSLRLSCAASGRTFETIAMGWFRQAPGKEREFVAVIRGSGVATSYPESVKGRFTISKDSSKNTVYLQMNSLRAEDTAVYYCAATTNRFKNTDYTTYDYWGQGTQVTVSS
0.89 nM	3.4 nM					BI-063 (VHH, Variant of BI-039; also called 61-Gft-106; BI-063 VHH) VHH: EVQLVESGGGLVQPGGSLRLSCAASGRTFETIAMGWFRQAPGKEREFVAVIRGSGVATYYPDSVKGRFTISKDSSKNTVYLQMNSLRAEDTAVYYCAATTNRFKNTDYTTYDYWGQGTQVTVSS
0.36 nM	3 nM					BI-117 (VHH, also called 61-Gft-106_D62E) VHH: EVQLVESGGGLVQPGGSLRLSCAASGRTFETIAMGWFRQAPGKEREFVAVIRGSGVATYYPESVKGRFTISKDSSKNTVYLQMNSLRAEDTAVYYCAATTNRFKNTDYTTYDYWGQGTQVTVSS

Source: patent US20240262879A1 (Boehringer Ingelheim, published 2024)
